Test results taken from patent US9215869 (UNIVERSITY OF GEORGIA RESEARCH FOUNDATION, dated 2015).

What was measured:
[1] = target: Cry11Ba toxin, trypsin-activated (Bacillus thuringiensis jegathesan) (Bacillus thuringiensis jegathesan) (UniProt Q45730); assay: cell-based or functional assay
[2] = target: Cry11Ba toxin, trypsin-activated (Bacillus thuringiensis jegathesan) (Bacillus thuringiensis jegathesan) (UniProt Q45730); assay: 125I-Cry11Ba binding to An. gambiae BBMV with 10 µM competitor peptide
[3] = target: brush border membrane vesicles (BBMV) of Anopheles gambiae 4th instar larvae (Anopheles gambiae); assay: 125I-Cry11Ba binding to An. gambiae BBMV in the presence of 10 µM AgAPN2tb/Del1, against no peptide
[4] = target: brush border membrane vesicles (BBMV) of Anopheles gambiae 4th instar larvae (Anopheles gambiae); assay: 125I-Cry11Ba binding to An. gambiae BBMV in the presence of 10 µM AgAPN2tb, against no peptide
[5] = target: brush border membrane vesicles (BBMV) of Anopheles gambiae 4th instar larvae (Anopheles gambiae); assay: 125I-Cry11Ba binding to An. gambiae BBMV in the presence of 10 µM AgAPN2tb/Del3, against no peptide
[6] = target: brush border membrane vesicles (BBMV) of Anopheles gambiae 4th instar larvae (Anopheles gambiae); assay: 2.5 nM 125I-Cry11Ba on 8 µg An. gambiae BBMV, no competitor
[7] = target: T1, Cry11Ba toxin, trypsin-activated (Bacillus thuringiensis jegathesan) (Bacillus thuringiensis jegathesan, UniProt Q45730 29-647, 125I-labelled (chloramine-T) in the BBMV binding assays; unlabelled when coated on microtiter plates); assay: saturation ELISA, biotinylated peptide on plates coated with trypsinized Cry11Ba, one-site fit
T1 construct: also called trypsinized Cry11Ba; trypsinated Cry11Ba
T1 sequence (Q45730 29-647 limits assumed): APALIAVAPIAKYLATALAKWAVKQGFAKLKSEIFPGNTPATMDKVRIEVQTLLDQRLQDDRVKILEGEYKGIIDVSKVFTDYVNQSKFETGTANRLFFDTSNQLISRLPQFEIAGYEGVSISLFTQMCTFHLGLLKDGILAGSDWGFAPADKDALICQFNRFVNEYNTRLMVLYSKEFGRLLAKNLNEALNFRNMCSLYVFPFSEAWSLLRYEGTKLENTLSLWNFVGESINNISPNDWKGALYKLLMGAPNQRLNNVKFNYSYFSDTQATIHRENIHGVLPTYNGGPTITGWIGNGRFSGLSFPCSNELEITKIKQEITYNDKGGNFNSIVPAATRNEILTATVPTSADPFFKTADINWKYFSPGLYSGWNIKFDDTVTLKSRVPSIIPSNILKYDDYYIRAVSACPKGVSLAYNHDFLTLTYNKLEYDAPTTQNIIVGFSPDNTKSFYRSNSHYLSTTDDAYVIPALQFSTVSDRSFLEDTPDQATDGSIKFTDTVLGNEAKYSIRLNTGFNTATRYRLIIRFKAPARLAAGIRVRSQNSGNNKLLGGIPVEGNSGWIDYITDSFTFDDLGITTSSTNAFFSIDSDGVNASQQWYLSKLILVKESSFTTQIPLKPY

Sequence of Cry11Ba toxin, trypsin-activated (Bacillus thuringiensis jegathesan) (from UniProt Q45730 29-647) (ligand) (Q45730 29-647 limits assumed): as above
Sequence of Cry11Ba toxin, trypsin-activated (Bacillus thuringiensis jegathesan) (Bacillus thuringiensis jegathesan) (Q45730 29-647 limits assumed): as above

Molecule | larval mortality with Cry11Ba plus peptide inclusion bodies (1:100), 24 h [1] [%] | toxin bound to BBMV in presence of the competitor [2] [fmol] | Kd [7] [nM] | also measured
AgAPN2ta/Del2 (AgAPN2ta with a middle 10-kDa segment deleted) (receptor) | 8.8 | 20.6 | – | –
AgAPN2ta/Del3 (AgAPN2ta with the third 10-kDa segment deleted) (receptor) | 5 | 19.5 | – | –
Cry11Ba toxin, trypsin-activated (Bacillus thuringiensis jegathesan) (from UniProt Q45730 29-647) (ligand) | – | – | – | percent increase of Cry11Ba binding to BBMV [3]: 62%; percent increase of Cry11Ba binding to BBMV [4]: 24%; percent increase of Cry11Ba binding to BBMV [5]: 45%; toxin bound [6]: 27.9 fmol
AgAPN2ta, 30-kDa fragment of Anopheles gambiae aminopeptidase N AgAPN2 (residues 336-590 of SEQ ID NO:2) (receptor, biotinylated when used as probe, Expressed in E. coli as inclusion bodies, solubilized in 8M urea, Ni-purified and dialyzed; An N-terminal Met from the NdeI site is implied by the primers; also called AgAPN2a; -2a; not shown: C-terminal vector-derived His tag (pET-30a(+), NdeI/XhoI; purified on Ni2+ column)) STSMQQHRIAAVISHEIAHQWFGDLVTCEWWDVTWLNEGFARYYQYYGTALVETEWDLDHQFVVEQLQGVMQMDSLRSTHPMTHPVYTQAQTSGIFDNISYNKGAVMLRMMEHYLTTETFKTALRAYIKDRAFKTTRPEDLFNALNRYDPNARSYMEPWTVQPGYPLVTVTSHDTGFTITQKRFLVNEPDHNEQTAWPLPITFATKASEFSITRPAFYTGMTFEIPMQGASDVEYFILNNQQVGYYRVNYDAILW | – | – | 16.7 | –
AgAPN2tb, 28-kDa fragment of Anopheles gambiae aminopeptidase N AgAPN2 (residues 591-843 of SEQ ID NO:2) (receptor, biotinylated when used as probe, Expressed in E. coli as inclusion bodies, solubilized in 8M urea, Ni-purified and dialyzed; An N-terminal Met from the NdeI site is implied by the primers; also called AgAPN2b; biotin-AgAPN2tb; not shown: C-terminal vector-derived His tag (pET-30a(+), NdeI/XhoI; purified on Ni2+ column)) GKISKALHSEGFGGIHVLNRAQIVDDLFNLARGDVVPYGTALEILEYLKEETEYAPWLAAVNGLTTLSRRIHADDEKLFTAHILDIFSKAYDIVKFQAPTATERRIFTYMRQNVLQWACNYGHEECSKAAVAEFHRYHQNPSVKVHPDLRQVVYCEGIRKGSTEEFEFLWNQYLTTNVATEQILILQGLGCVSSSELITDMLNGIASPHVRSQDKNNAFTYVINNPYTLPHVSRYLQQNHANWAASHGSYTNV | – | – | 26.4 | –
